In the RNAGym collection of RNA variant scans (doi:10.7554/elife.80360) one finds self-cleavage data, which are given here for 167 variants.

B1: CPEB3 Ribozyme (parent)
chain: GGGGGCCACAGCAGAAGCGUUCACGUCGCGGCCCCUGUCAGAUUCUGGUGAAUCUGCGAAUUCUGCUGU

Variants of B1 are the subject of the data set. Description: self-cleavage, relative activity (ratio to wild type); higher = more cleavage; co-transcriptional.
As to A16G U49G, the self-cleavage stood at 0.979. Next, A16C G41U: 0.142; A16C G41A: 0.129. As to A16U U20A, the self-cleavage was found to be 0.124. For A16U U20C, the self-cleavage amounted to 0.196. As for G17A C18A, the self-cleavage turned out to be 0.116. The value for G17A C18G was 0.147; that for A16C G56U was 0.145. The value for A16G U64A was 0.645; that for A16G U64G was 0.727; that for A16G G47U was 0.998. As for A16G C29A, the self-cleavage was found to be 0.224. For A16G C29U, the self-cleavage stood at 0.111. As to A16C U21G, the self-cleavage was found to be 0.0655. Turning to A16C U21A, the self-cleavage was 0.273. For A16U U36C, the self-cleavage amounted to 0.438. Turning to A16U U36A, the self-cleavage was determined as 0.166. In the case of G17A C39A, the self-cleavage amounted to 0.201. On to G17A C39G, for which the self-cleavage stood at 0.216. For the variant G17A C39U, the self-cleavage is 0.213. The value for A16G C22G was 0.0656; that for A16G U43C was 0.791.

In the case of A16G U43A, the self-cleavage worked out at 0.784.

As for A16U C33A, the self-cleavage stood at 0.555. Next, A16U C33G: 0.319; A16U C33U: 0.865; A16U G25C: 0.194. G17A A52U: the self-cleavage came out at 0.519. As to G17A A52G, the self-cleavage is 0.596.

With A16C C18G, the self-cleavage was 0.114. Next, A16C C18A: 0.129; A16U G19U: 0.164.

With A16U G19A, the self-cleavage was found to be 0.13.

A16C C35U: the self-cleavage was 0.17. A16C C35A: the self-cleavage was found to be 0.071. Turning to A16C C35G, the self-cleavage was found to be 0.118. As for A16G A23U, the self-cleavage amounted to 0.955. The value for A16G A23C was 0.928; that for A16G A23G was 0.921; that for G17A G25C was 0.147. On to G17A G25A, for which the self-cleavage was found to be 0.201. Consider G17A G25U, for which the self-cleavage was 0.117. Next, G17A G19A: 0.154; G17A G19C: 0.095; G17A G19U: 0.114.

Turning to A16G U69A, the self-cleavage stood at 1.04. Next, A16G U69G: 1.04; A16G U46G: 0.969. Turning to A16G U46C, the self-cleavage was determined as 0.728. Consider A16G U36C, for which the self-cleavage is 0.724. On to A16G G48U, for which the self-cleavage was determined as 0.974.

For A16G G48A, the self-cleavage stood at 0.964. Consider A16G G48C, for which the self-cleavage is 0.892. Next, A16U G17A: 0.203. Next, A16U G17U: 0.147; A16C G47C: 0.368. The value for A16C G47A was 0.303; that for A16G C33U was 0.946.

Take A16G C33G: the self-cleavage was 0.29.

Take G17A C57G: the self-cleavage turned out to be 0.227. In the case of G17A C57A, the self-cleavage came to 0.145.

G17A C57U: the self-cleavage turned out to be 0.197. Take A16U U46C: the self-cleavage worked out at 0.874. The value for G17A C33U was 0.43. As for A16G G65C, the self-cleavage worked out at 0.446. Next, A16G C57U: 0.317; A16G C57G: 0.324; A16G C57A: 0.335.

Consider A16C G48A, for which the self-cleavage was determined as 0.328. Next, A16C G48U: 0.375.

Turning to A16U G30A, the self-cleavage amounted to 0.22. Turning to A16U G30C, the self-cleavage worked out at 0.189. Next, A16C U49G: 0.319. For A16C U49C, the self-cleavage was 0.377.

With A16C U49A, the self-cleavage amounted to 0.419. As to A16G U61G, the self-cleavage was 0.732. The value for A16G U61A was 0.833. The value for A16G U61C was 0.951.

Consider A16G C34U, for which the self-cleavage came to 0.845.

On to A16G C34G, for which the self-cleavage turned out to be 0.576. As for A16G C34A, the self-cleavage worked out at 0.583. With A16U G48C, the self-cleavage turned out to be 0.889. Turning to A16U G48A, the self-cleavage was found to be 0.862. Regarding A16G A52U, the self-cleavage was 0.804. The value for A16G A52G was 0.87; that for A16G U26A was 0.801. Regarding A16G U26G, the self-cleavage was determined as 0.848.

Take A16G G25A: the self-cleavage was 0.283. Turning to A16G G25U, the self-cleavage came out at 0.174. Take A16G G25C: the self-cleavage came out at 0.257. Consider A16G C54U, for which the self-cleavage amounted to 0.928. With A16G G58C, the self-cleavage stood at 0.95. For A16G U20C, the self-cleavage worked out at 0.159.

With A16G U20G, the self-cleavage is 0.155.

Turning to A16G U20A, the self-cleavage turned out to be 0.129. The value for A16C G50C was 0.301; that for A16U A52G was 0.888; that for A16U C63G was 0.361. With A16C U46A, the self-cleavage amounted to 0.51. Consider A16U A59U, for which the self-cleavage is 0.381. A16G U44A: the self-cleavage is 0.835. The value for G17A C63G was 0.257; that for G17A C63A was 0.171; that for A16U C66G was 0.356. A16U C66A: the self-cleavage came to 0.427. As to A16U C66U, the self-cleavage turned out to be 0.785.

For A16G C18A, the self-cleavage worked out at 0.0836.

Take A16G C18U: the self-cleavage was 0.569. For A16C U44C, the self-cleavage is 0.178. The value for G17A C45G was 0.435.

Take G17A C45A: the self-cleavage came to 0.366. The value for A16C U67A was 0.331; that for A16C U67G was 0.257. Turning to A16U A40G, the self-cleavage turned out to be 0.754. Consider G17A C32U, for which the self-cleavage was determined as 0.625. The value for G17A C32G was 0.13; that for A16C C57U was 0.107; that for A16U U55G was 0.335. Next, A16G G17A: 0.0854; A16G G17U: 0.559; A16U A23G: 0.528.

As to A16U A23U, the self-cleavage was found to be 0.867. Next, A16C U64G: 0.119. Next, A16U U62G: 0.625.

Turning to A16U U62C, the self-cleavage amounted to 0.734. With A16U G50U, the self-cleavage was 0.862. The value for A16U C22A was 0.12; that for A16U G47A was 0.893; that for A16G G41U was 0.472. The value for A16G G41C was 0.41; that for A16G G56A was 0.703. For A16G G56C, the self-cleavage is 0.458.

Turning to A16G, the self-cleavage was determined as 0.946. As to A16U, the self-cleavage turned out to be 0.888. For the variant A16G U53C, the self-cleavage came out at 0.622. Next, A16C C66A: 0.18; A16C C66G: 0.198. Next, A16U U64A: 0.588; A16U U64G: 0.545. In the case of A16U U64C, the self-cleavage worked out at 0.463. Consider A16U U26C, for which the self-cleavage amounted to 0.812. Take A16U U26A: the self-cleavage was found to be 0.221. The value for A16C G25A was 0.139.

With A16C G25U, the self-cleavage is 0.103.

Take A16G A51G: the self-cleavage was 0.894. Next, A16G A51C: 0.819; A16C U36G: 0.108. Next, A16C U36C: 0.165; A16C U36A: 0.115; G17A C35G: 0.179. Next, G17A C35A: 0.136. Regarding G17A C54A, the self-cleavage is 0.236. For G17A C54G, the self-cleavage was 0.187. Next, G17A C54U: 0.488; A16C U53C: 0.152; A16C U53G: 0.251. With A16C U38C, the self-cleavage was found to be 0.137. Next, A16C U38A: 0.269; A16C U38G: 0.15. A16U C32G: the self-cleavage worked out at 0.24.

With A16U C32U, the self-cleavage amounted to 0.936. For the variant A16C C32G, the self-cleavage is 0.136.

A16C C32U: the self-cleavage came to 0.299.

Consider G17A A59G, for which the self-cleavage turned out to be 0.691. Consider A16U C18A, for which the self-cleavage is 0.0736. The value for G17A C29A was 0.572; that for G17A C29U was 0.858.
